# Measurements published in PMC5079630, “STAT2 Is a Pervasive Cytokine Regulator due to Its Inhibition of STAT1 in Multiple Signaling Pathways” (PLoS Biology, 2016).
# T1: STAT1 N domain (aminoterminal domain), recombinant
# T1 chain: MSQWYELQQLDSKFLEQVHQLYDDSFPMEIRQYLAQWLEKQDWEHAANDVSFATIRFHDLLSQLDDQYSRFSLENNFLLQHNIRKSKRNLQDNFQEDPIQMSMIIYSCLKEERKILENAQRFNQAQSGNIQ
# B1: STAT2 N domain (aminoterminal domain), recombinant, mEGFP-tagged (domain or fragment)
# chain: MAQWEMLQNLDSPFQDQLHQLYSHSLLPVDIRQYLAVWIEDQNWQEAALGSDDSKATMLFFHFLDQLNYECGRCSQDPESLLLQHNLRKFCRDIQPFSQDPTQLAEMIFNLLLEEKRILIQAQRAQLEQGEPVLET
# modifications: limits not given; N domain taken up to the start of the core region (P52630 region from 138), homologous to STAT1 1-131; mEGFP and Strep-tag omitted / limits not printed (S1 Text/ref. 22); N domain
# B2: STAT1 N domain (aminoterminal domain), recombinant (domain or fragment)
# chain: T1 chain
# modifications: limits not printed (S1 Text/ref. 22); N domain taken up to the start of the conventional STAT1 core fragment (132-713); Strep-tag omitted / limits not printed (S1 Text/ref. 22); N domain taken up to …
# Target: T1, STAT1 N domain (aminoterminal domain), …
# Experiment: AUC; sedimentation equilibrium of purified recombinant N domains, homo- and heterotypic associations (dimer to monomers); STAT1 N domain and mEGFP-tagged STAT2 N domain at final equimolar concentrations of 2.5, 10, and 40 μM
# Conditions: both partners purified
Binder,fold stronger than STAT1 N domain homodimers,fold stronger than STAT2 N domain homodimers
B1,≥ 1000 fold,
B2,,~50 fold
